{"source": "paper PMC5902676", "about": "(Biochemical Journal, 2018)", "binders": {"B1": {"name": "HybO ΔTat ΔTM with C-terminal His-tag (small subunit of E. coli Hydrogenase-2, encoded by plasmid pO^C) (domain or fragment, UniProt P69741 38-330, looked up)", "chain": "EMAESVTNPQRPPVIWIGAQECTGCTESLLRATHPTVENLVLETISLEYHEVLSAAFGHQVEENKHNALEKYKGQYVLVVDGSIPLKDNGIYCMVAGEPIVDHIRKAAEGAAAIIAIGSCSAWGGVAAAGVNPTGAVSLQEVLPGKTVINIPGCPPNPHNFLATVAHIITYGKPPKLDDKNRPTFAYGRLIHEHCERRPHFDAGRFAKEFGDEGHREGWCLYHLGCKGPETYGNCSTLQFCDVGGVWPVAIGHPCYGCNEEGIGFHKGIHQLANVENQTPRSQKPDVNAKEGG"}}, "molecular_target": "T1, HybC (large subunit of E. coli Hydrogenase-2), processed form of 552 residues (E. coli, UniProt P0ACE0 1-552)", "T1 sequence (looked up)": "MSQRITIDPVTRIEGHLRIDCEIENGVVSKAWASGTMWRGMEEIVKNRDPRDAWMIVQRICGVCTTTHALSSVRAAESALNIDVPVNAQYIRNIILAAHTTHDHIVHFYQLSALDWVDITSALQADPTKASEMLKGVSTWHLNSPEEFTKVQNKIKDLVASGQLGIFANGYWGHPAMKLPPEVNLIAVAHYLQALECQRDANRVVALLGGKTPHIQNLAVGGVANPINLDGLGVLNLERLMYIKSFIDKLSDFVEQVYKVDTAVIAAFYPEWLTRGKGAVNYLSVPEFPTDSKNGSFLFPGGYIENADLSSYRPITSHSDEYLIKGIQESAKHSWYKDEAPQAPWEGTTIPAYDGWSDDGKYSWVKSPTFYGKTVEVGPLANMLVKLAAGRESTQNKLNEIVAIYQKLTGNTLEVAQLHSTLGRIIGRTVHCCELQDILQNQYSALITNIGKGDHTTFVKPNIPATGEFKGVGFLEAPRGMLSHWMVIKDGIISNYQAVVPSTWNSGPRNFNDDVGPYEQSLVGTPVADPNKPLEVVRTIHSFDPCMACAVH", "assay": "crystal structure"}
{"binder": "B1", "values": [{"measurement": "binding result", "result": "binds"}]}
